Patent publication US20090081195

Test system: SLK (construct not stated)
Sequence (chain, as listed by the source): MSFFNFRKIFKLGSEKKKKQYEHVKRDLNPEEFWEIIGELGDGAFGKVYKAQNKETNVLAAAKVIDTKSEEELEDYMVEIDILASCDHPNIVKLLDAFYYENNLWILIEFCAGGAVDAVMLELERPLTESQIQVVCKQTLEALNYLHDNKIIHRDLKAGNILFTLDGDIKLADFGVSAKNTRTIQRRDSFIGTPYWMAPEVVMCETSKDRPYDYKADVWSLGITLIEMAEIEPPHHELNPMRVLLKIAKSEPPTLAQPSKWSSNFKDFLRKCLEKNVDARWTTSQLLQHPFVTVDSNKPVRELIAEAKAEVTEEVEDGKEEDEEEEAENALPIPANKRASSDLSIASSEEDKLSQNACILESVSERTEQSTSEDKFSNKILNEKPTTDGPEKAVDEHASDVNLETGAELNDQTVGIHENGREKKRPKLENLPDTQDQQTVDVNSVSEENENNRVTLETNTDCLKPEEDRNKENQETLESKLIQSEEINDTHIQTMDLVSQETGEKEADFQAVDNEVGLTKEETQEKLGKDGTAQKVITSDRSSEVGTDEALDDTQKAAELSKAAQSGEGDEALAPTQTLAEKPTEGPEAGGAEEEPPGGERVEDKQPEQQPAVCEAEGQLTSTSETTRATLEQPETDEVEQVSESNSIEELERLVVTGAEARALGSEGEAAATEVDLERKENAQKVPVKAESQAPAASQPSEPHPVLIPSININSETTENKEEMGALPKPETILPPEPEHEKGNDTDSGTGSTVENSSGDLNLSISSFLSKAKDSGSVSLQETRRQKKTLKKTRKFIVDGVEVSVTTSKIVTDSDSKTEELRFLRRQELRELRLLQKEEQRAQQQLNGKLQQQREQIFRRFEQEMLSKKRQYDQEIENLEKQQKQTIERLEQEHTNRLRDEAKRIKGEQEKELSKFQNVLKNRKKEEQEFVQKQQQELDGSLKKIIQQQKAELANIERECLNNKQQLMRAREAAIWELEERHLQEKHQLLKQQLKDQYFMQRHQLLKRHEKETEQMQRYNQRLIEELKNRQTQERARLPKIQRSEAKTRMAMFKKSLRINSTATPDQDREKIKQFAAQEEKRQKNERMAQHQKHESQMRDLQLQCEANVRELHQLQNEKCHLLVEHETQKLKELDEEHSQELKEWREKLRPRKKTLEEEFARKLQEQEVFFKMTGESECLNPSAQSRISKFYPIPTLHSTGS

## nm23 (nucleoside diphosphate kinase; NDPK)
  SLK activity in vitro (kinase assay, autophosphorylation): nm23 is not a substrate for SLK but rather inhibits its activity in vitro through direct interaction
